The values that follow come from patent publication US20250108132A1.

For the test, the target named is purified cyno C3 protein (CompTech, CY113) (cynomolgous monkey (Macaca fascicularis)). The test is described as follows: sandwich ELISA; known concentrations of purified cyno C3 read on the human C3 kit, relative to human C3.

Take “human C3 ELISA kit (Abcam, ab108823) (antibody)”: the cross-reactivity turned out to be 30%.
